These results are taken from patent US20150368357A1.

Test [1] concerns the target HER2 (Human Epidermal Growth Factor Receptor 2) expressed on SK-BR-3 cells (human) (UniProt P04626). The experiment in a line: flow cytometry, SK-BR-3 cells; mAb 0.2 ng/ml as headed. (In general: A flow cytometer gives signals particle by particle.)
Test [2] has the same target. In words: flow cytometry, SK-BR-3 cells; mAb 0.4 ng/ml as headed.
Test [3] has the same target. The experiment in a line: flow cytometry, SK-BR-3 cells; mAb 50 ng/ml as headed.

For “Anti-idiotypic FVIII (a chimeric anti-Factor VIII antibody produced by rat hybridoma YB2/0)”, the MFI stood at 0 MFI in test [1], 0 MFI in test [2] and 16 MFI in test [3].
